Read-outs that look alike come from different tables or passages of the source.
Tests used:
KPL4 = assay: MTT assay, cytotoxic effects of the ADCs; format: cell-based; conditions: Homo sapiens, metabolite, read-out: KPL-4 IC50 [M] MTT Assay
Procedure: (§1) The analysis of the cytotoxic effects of the anti-TWEAKR-ADCs was carried out with various cell lines:
KPL4: human breast carcinoma cells, standard medium: RPMI 1640+GlutaMAX I+10% FBS, cell bank, Bayer Pharma AG (identity checked and confirmed on 19 Jul. 2012 at DSMZ), Berlin, ERBB2-positive.
(§2) The cells are cultivated by a standard method, as indicated in the […] (ATCC) for the respective cell lines.
(§3) The test was carried out by detaching the cells with a solution of Accutase in PBS (Biochrom AG #L2143), pelleting, resuspending in culture medium, counting and seeding the cells into a 96-well culture plate with white bottom (Costar #3610, LoVo:1000 cells/well, SK-HEP-1: 1200 cell/well, NCI H292: 1500 cell/well in a total volume of 100 μL). The cells were then incubated in an incubator at 37° C. and 5% carbon dioxide. After 48 h, the antibody drug conjugates were added in 10 μl of culture medium in concentrations of from 10^−5M to 10^−13M to the cells (triplicates) and incubated in an incubator at 37° C. and 5% carbon dioxide. After 96h, the proliferation was measured using the MTT assay (ATCC, Manassas, Va., USA, catalogue No. 30-1010K). […] The dye formed was detected at 570 nm (Infinite M1000 pro, Fa. Tecan). Based on the measured data the IC50 value was determined from the DRC (dose response curve). […]

NCI-H292 = assay: MTT assay, cytotoxic effects of the ADCs; format: cell-based; conditions: Homo sapiens, metabolite
Procedure: as §1
NCI-H292: human mucoepidermoid lung carcinoma cells, ATCC-CRL-1848, standard medium: RPMI 1640 (Biochrom; #FG1215, stab. glutamine)+10% FCS (Biochrom; #S0415), TWEAKR-positive, EGFR-positive.
as §2, §3

[1] = Caco-2 flux assay for cell permeability; format: in vitro ADME; conditions: human; Caco-2, 2 hours
Procedure: The cell permeability of a substance can be investigated by means of in vitro testing in a flux assay using Caco-2 cells [M. D. Troutman and D. R. Thakker, Pharm. Res. 20 (8), 1210-1224 (2003)]. For this purpose, the cells were cultured for 15-16 days on 24-well filter plates. For the determination of permeation, the respective working example was applied in a HEPES buffer to the cells either apically (A) or basally (B) and incubated for 2 hours. After 0 hours and after 2 hours, samples were taken from the cis and trans compartments. The samples were separated by HPLC (Agilent 1200, Böblingen, Germany) using reverse phase columns. The HPLC system was coupled via a Turbo Ion Spray Interface to a Triple Quadropol mass spectrometer API 4000 (Applied Biosystems Applera, Darmstadt, Germany). The permeability was evaluated on the basis of a Papp value, which was calculated using the formula published by Schwab et al. [D. Schwab et al., J. Med. Chem. 46, 1716-1725 (2003)].
Of critical importance for toxophores which are released intracellularly is the permeability from B to A [Papp (B−A)] and the ratio of Papp (B−A) to Papp (A−B) (efflux ratio): the lower this permeability, the slower the active and passive transport processes of the substance through the monolayer of Caco-2 cells.

[2] = biological target: recombinant human TWEAKR protein (TPP-2305) (Homo sapiens (Human), UniProt Q9NP84); assay: Biacore surface plasmon resonance binding affinity; conditions: for ka / kd: monovalent, 1:1 binding model
Procedure: Binding affinities of anti-TWEAKR antibodies were examined using surface plasmon resonance analysis on a Biacore T100 instrument (GE Healthcare Biacore, Inc.). The antibodies were immobilized on a CMS sensor chip using an indirect capture reagent, anti-human IgG(Fc). Reagents of the “Human Antibody Capture Kit” (BR-1008-39, GE Healthcare Biacore, Inc.) were used as described by the manufacturer. Anti-TWEAKR antibodies were injected at a concentration of 10 μg/ml at 10 μl/min for 10 sec.
Sensorgrams were generated after in-line reference cell correction, followed by subtraction of the buffer sample. The dissociation constant (KD) was calculated based on the ratio of association (kon) and dissociation (koff) constants, obtained by fitting sensorgrams using a 1:1 first order binding model.

[3] = biological target: hTNFRSF12 amino acids a28-80-hIgG1-Fc (TPP-599) (Homo sapiens (Human), UniProt Q9NP84); assay: ELISA mutein binding (wild type); conditions: coated 62 ng/ml, biotinylated IgG; read-out: Effect of muteins on antibody binding: WT
Procedure: (§4) To this end, the full-length ectodomain (amino acids 28-80) having the individual amino acid substitutions below were expressed and purified as Fc fusion proteins: T33Q; S40R; W42A; M50A; R56P; H60K; L65Q.
(§5) To obtain dose-reaction data, the different TWEAKR-Fc muteins were coated at a low concentration (62 ng/ml) onto a 384-well Maxisorb ELISA plate, and a serial 2-fold dilution of biotinylated IgG beginning with a concentration of 100 nM was used as a soluble binding partner. Detection was carried out using streptavidin-HRP and Amplex Red.
(§6) IgGs were biotinylated using an about 2-fold molar excess of biotin-LC-NHS (Pierce; Cat. No. 21347) according to the instructions of the manufacturer and desalted using Zeba desalting columns (Pierce; Cat. No. 89889). The dose-reaction data were fitted and the IC50s were determined.

TWEAKR = TWEAKR (Homo sapiens (Human), UniProt Q9NP84); conditions: literature values; read-out: published KD values; cited from earlier work
[4] = biological target: hTNFRSF12 amino acids a28-80-L65Q-hIgG1-Fc (TPP-1990) (Homo sapiens (Human), UniProt Q9NP84, L65Q); assay: ELISA mutein binding; conditions: mutein coated 62 ng/ml, biotinylated IgG; read-out: Effect of muteins on antibody binding: L65Q
Procedure: as §4, §5, §6

[5] = biological target: hTNFRSF12 amino acids a28-80-W42A-hIgG1-Fc (TPP-1985) (Homo sapiens (Human), UniProt Q9NP84, W42A); assay: ELISA mutein binding; conditions: mutein coated 62 ng/ml, biotinylated IgG; read-out: Effect of muteins on antibody binding: W42A
Procedure: as §4, §5, §6

[6] = biological target: hTNFRSF12 amino acids a28-80-M50A-hIgG1-Fc (TPP-1988) (Homo sapiens (Human), UniProt Q9NP84, M50A); assay: ELISA mutein binding; conditions: mutein coated 62 ng/ml, biotinylated IgG; read-out: Effect of muteins on antibody binding: M50A
Procedure: as §4, §5, §6

[7] = biological target: hTNFRSF12 amino acids a28-80-H60K-hIgG1-Fc (TPP-1989) (Homo sapiens (Human), UniProt Q9NP84, H60K); assay: ELISA mutein binding; conditions: mutein coated 62 ng/ml, biotinylated IgG; read-out: Effect of muteins on antibody binding: H60K
Procedure: as §4, §5, §6

[8] = biological target: hTNFRSF12 amino acids a28-80-T33Q-hIgG1-Fc (TPP-1986) (Homo sapiens (Human), UniProt Q9NP84, T33Q); assay: ELISA mutein binding; conditions: mutein coated 62 ng/ml, biotinylated IgG; read-out: Effect of muteins on antibody binding: T33Q
Procedure: as §4, §5, §6

[9] = biological target: hTNFRSF12 amino acids a28-80-R56P-hIgG1-Fc (TPP-2683) (Homo sapiens (Human), UniProt Q9NP84, R56P); assay: ELISA mutein binding; conditions: mutein coated 62 ng/ml, biotinylated IgG; read-out: Effect of muteins on antibody binding: R56P
Procedure: as §4, §5, §6

[10] = biological target: hTNFRSF12 amino acids a28-80-S40R-hIgG1-Fc (TPP-1987) (Homo sapiens (Human), UniProt Q9NP84, S40R); assay: ELISA mutein binding; conditions: mutein coated 62 ng/ml, biotinylated IgG; read-out: Effect of muteins on antibody binding: S40R
Procedure: as §4, §5, §6

[11] = Biacore, read-out: KD (affinity to TWEAKR)

| Kd [2, 11] [nM] | Kd ([2]; monovalent KD, read-out: KD) [nM] | ka [2] [M⁻¹ s⁻¹] | kd [2] [s⁻¹] | IC50 [3] [nM] | IC50 [4] [nM] | IC50 [5] [nM] | IC50 [6] [nM] | IC50 [7] [nM] | IC50 [8] [nM] | IC50 [9] [nM] | IC50 [10] [nM] | Molecule | IC50 (KPL4) [M] | IC50 (NCI-H292) [nM] | Papp B→A at 2 h [1] [×10⁻⁶ cm/s] | Kd (TWEAKR) [nM] |
| --- | --- | --- | --- | --- | --- | --- | --- | --- | --- | --- | --- | --- | --- | --- | --- | --- |
| – | – | – | – | – | – | – | – | – | – | – | – | CC(=O)N[C@@H](CCCCNC(=O)CC[C@H](N)C(=O)O)C(=O)NCCNC(=O)[C@@H](N)CCN(C(=O)CO)[C@@H](c1cc(-c2cc(F)ccc2F)cn1Cc1ccccc1)C(C)(C)C.O=C(O)C(F)(F)F [Example M100, N^6-L-gamma-glutamyl-N^2-acetyl-N-[2-({(2S)-2-amino-4-[{(1R)-1-[1-benzyl-4-(2,5-difluorophenyl)-1H-pyrrol-2-yl]-2,2-dimethylpropyl}(glycoloyl)amino]butanoyl}amino)ethyl]-L-lysinamide trifluoro acetate (1:1)] | > 5e-07 | > 500 | 0.12 | – |
| 0.7 to 3.7 | 0.4 | 1.32e+06 | 0.000564 | – | – | – | – | – | – | – | – | P2D3(TPP-2196): comparative anti-TWEAKR antibody; variable domains from patent literature "WO2009/020933 and WO2009/140177", constant region added, "resulting in full-length IgGs" (antibody, Mus Musculus) heavy: QVSLKESGPGILQPSQTLSLTCSFSGFSLSTSGMGVSWIRQPSGKGLEWLAHIYWDDDKRYNPSLKSRLTISKDTSRNQVFLKITSVDTADTATYYCARRGPDYYGYYPMDYWGQGTSVTVSAKTTAPSVYPLAPVCGDTTGSSVTLGCLVKGYFPEPVTLTWNSGSLSSGVHTFPAVLQSDLYTLSSSVTVTSSTWPSQSITCNVAHPASSTKVDKKIEPRGPTIKPCPPCKCPAPNLLGGPSVFIFPPKIKDVLMISLSPIVTCVVVDVSEDDPDVQISWFVNNVEVHTAQTQTHREDYNSTLRVVSALPIQHQDWMSGKEFKCKVNNKDLPAPIERTISKPKGSVRAPQVYVLPPPEEEMTKKQVTLTCMVTDFMPEDIYVEWTNNGKTELNYKNTEPVLDSDGSYFMYSKLRVEKKNWVERNSYSCSVVHEGLHNHHTTKSFSRTPG light: DIVLTQSPASLAVSLGQRATISCRASKSVSTSSYSYMHWYQQKPGQPPKLLIKYTSNLESGVPARFSGSGSGTDFILNIHPVEEEDAATYYCQHSRELPWTFGGGTKLEIKRADAAPTVSIFPPSSEQLTSGGASVVCFLNNFYPKDINVKWKIDGSERQNGVLNSWTDQDSKDSTYSMSSTLTLTKDEYERHNSYTCEATHKTSTSPIVKSFNRNEC | – | – | – | – |
| 0.7 to 3.7 | – | 1.64e+07 | 0.0285 | 0.001 to 0.15 | 0.001 to 0.15 | > 50 | 0.001 to 0.15 | 0.001 to 0.15 | 0.001 to 0.15 | > 50 | 0.001 to 0.15 | 18.3.3(TPP-2193): comparative anti-TWEAKR antibody; variable domains "obtained from the patent literature WO2009/020933", constant region added, "resulting in full-length IgGs" (antibody, Mus Musculus) heavy: EVKLGESGGGLVQPGGSMKLSCVASGFPFTKYWMNWVRQSPEKGLEWVAEIRLKSDNYATHYAESAKGRFTISRDDSRSSVYLQMNNLRAEDTAIYYCSPTYADTMDYWGQGTSVTVSSAKTTAPSVYPLAPVCGDTTGSSVTLGCLVKGYFPEPVTLTWNSGSLSSGVHTFPAVLQSDLYTLSSSVTVTSSTWPSQSITCNVAHPASSTKVDKKIEPRGPTIKPCPPCKCPAPNLLGGPSVFIFPPKIKDVLMISLSPIVTCVVVDVSEDDPDVQISWFVNNVEVHTAQTQTHREDYNSTLRVVSALPIQHQDWMSGKEFKCKVNNKDLPAPIERTISKPKGSVRAPQVYVLPPPEEEMTKKQVTLTCMVTDFMPEDIYVEWTNNGKTELNYKNTEPVLDSDGSYFMYSKLRVEKKNWVERNSYSCSVVHEGLHNHHTTKSFSRTPG light: DIVLTQSPASLAVSLGQRATISCKASQSVSTSTYSYMQWYQQRPGQSPKLLIKYASKLDSGVPARFSGSGSGTDFTLNIHPVEEEDTATYYCQHSWELPYTFGGGTRLEIKRADAAPTVSIFPPSSEQLTSGGASVVCFLNNFYPKDINVKWKIDGSERQNGVLNSWTDQDSKDSTYSMSSTLTLTKDEYERHNSYTCEATHKTSTSPIVKSFNRNEC | – | – | – | 0.2 |
